# Where two headings read alike, the source gives them in different places. No end group written: not given here.
# Assays:
# Settings in all cases: modification not given
# [1] = molecular target: T1, Furin (recombinant, truncated) (mouse), P23188
# T1 chain: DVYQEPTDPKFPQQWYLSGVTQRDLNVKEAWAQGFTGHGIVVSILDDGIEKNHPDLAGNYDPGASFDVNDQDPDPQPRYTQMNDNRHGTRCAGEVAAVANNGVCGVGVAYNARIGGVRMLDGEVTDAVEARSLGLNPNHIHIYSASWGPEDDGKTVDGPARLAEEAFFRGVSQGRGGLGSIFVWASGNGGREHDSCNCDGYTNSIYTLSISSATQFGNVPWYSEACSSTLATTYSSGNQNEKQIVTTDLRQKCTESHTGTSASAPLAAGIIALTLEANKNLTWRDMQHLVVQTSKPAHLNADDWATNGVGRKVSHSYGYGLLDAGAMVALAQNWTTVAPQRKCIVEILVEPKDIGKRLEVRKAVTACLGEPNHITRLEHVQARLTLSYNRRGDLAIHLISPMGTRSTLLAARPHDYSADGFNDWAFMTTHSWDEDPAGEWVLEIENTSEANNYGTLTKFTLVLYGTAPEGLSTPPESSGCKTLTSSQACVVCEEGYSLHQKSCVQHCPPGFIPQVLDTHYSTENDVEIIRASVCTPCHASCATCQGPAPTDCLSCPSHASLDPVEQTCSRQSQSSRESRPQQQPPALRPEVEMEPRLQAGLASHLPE
# [2] = molecular target: T2, PC2, P16519
# T2 chain: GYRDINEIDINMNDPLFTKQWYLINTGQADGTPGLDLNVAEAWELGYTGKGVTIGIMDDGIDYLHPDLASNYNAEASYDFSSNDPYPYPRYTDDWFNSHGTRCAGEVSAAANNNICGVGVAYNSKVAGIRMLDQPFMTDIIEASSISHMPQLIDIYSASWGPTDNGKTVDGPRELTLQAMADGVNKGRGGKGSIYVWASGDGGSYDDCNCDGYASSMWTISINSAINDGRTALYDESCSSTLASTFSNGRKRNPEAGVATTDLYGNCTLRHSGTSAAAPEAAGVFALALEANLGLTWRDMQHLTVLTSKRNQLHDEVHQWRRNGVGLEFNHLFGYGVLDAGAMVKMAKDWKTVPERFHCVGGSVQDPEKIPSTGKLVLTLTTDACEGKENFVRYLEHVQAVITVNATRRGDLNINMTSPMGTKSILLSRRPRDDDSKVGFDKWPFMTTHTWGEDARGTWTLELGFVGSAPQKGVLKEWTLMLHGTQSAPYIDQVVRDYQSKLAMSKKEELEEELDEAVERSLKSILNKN
# [3] = molecular target: Furin (literature), P09958
# Sequence of Furin (literature), P09958 (P09958 108-715): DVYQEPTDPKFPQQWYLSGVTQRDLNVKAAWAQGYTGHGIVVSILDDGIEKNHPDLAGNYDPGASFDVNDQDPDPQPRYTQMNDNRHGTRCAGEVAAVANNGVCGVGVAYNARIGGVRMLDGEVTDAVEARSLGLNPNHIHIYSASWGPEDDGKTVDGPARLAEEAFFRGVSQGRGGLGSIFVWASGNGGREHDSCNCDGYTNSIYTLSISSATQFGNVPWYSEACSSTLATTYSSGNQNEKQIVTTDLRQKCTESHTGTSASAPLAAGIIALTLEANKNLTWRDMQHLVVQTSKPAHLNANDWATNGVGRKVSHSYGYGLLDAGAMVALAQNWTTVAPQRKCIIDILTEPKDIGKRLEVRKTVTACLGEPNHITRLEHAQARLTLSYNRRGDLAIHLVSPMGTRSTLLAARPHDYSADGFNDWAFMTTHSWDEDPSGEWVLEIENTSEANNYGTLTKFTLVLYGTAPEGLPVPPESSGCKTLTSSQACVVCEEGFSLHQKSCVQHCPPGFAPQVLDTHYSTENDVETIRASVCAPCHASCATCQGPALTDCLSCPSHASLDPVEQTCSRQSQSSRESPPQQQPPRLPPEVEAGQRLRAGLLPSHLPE
# [4] = molecular target: T3, PC7, Q16549
# T3 chain: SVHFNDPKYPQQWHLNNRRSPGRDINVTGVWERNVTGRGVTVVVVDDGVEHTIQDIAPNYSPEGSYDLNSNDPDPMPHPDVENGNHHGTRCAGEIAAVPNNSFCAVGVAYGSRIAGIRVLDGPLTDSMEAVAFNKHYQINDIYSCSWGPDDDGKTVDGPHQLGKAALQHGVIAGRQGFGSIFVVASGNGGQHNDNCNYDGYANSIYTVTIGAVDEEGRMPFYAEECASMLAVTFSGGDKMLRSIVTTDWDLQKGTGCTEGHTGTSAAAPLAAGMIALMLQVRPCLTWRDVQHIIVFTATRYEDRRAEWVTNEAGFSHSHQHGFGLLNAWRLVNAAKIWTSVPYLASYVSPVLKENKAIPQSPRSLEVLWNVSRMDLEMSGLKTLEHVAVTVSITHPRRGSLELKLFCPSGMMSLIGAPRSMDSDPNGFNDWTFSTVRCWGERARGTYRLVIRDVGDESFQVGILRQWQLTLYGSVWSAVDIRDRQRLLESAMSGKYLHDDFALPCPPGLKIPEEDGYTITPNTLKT
# [5] = molecular target: T2, PC2, P16519
# [6] = molecular target: T1, Furin (recombinant, truncated) (mouse), …
# [7] = molecular target: T4, PACE4, P29122
# T4 chain: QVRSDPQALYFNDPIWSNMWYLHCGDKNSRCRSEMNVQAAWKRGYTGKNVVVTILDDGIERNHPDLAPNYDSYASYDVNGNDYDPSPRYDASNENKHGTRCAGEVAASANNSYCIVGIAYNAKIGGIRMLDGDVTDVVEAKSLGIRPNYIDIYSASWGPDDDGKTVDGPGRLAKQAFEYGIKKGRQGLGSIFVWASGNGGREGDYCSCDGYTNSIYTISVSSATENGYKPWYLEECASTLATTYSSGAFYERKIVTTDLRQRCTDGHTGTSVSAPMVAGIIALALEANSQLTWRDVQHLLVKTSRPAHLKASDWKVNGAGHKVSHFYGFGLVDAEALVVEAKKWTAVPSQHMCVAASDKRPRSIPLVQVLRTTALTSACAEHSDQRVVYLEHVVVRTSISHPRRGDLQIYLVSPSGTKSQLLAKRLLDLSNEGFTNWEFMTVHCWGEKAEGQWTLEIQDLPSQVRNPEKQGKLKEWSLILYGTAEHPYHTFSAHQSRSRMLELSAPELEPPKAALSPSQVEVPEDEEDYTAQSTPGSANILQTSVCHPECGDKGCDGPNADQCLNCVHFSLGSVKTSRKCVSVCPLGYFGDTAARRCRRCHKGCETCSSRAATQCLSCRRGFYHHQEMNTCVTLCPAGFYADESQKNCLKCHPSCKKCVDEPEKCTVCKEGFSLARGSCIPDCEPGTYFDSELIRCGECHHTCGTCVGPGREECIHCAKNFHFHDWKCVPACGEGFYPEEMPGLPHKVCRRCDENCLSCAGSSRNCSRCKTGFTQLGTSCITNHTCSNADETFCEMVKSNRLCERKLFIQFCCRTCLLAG
# [8] = molecular target: T5, PC1, P29120
# T5 chain: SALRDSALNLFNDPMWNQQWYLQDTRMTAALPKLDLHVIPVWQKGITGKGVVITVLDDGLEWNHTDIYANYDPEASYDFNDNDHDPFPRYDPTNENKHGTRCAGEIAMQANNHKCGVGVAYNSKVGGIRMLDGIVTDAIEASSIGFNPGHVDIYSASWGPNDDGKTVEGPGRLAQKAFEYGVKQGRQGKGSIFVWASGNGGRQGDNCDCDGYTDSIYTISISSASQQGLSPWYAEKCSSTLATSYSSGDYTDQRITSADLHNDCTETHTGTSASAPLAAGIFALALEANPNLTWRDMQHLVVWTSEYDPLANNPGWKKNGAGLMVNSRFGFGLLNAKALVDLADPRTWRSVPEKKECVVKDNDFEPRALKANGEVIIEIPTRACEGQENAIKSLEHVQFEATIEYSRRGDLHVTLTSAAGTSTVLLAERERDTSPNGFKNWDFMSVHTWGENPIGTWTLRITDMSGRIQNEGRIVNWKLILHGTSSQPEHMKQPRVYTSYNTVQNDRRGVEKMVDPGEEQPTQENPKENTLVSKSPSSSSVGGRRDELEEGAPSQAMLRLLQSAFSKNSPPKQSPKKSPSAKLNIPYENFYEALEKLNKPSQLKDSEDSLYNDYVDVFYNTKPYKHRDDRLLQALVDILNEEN
# [9] = molecular target: T1, Furin (recombinant, truncated) (mouse), …
# [10] = molecular target: T2, PC2, P16519
# [11] = molecular target: T1, Furin (recombinant, truncated) (mouse), …
# [12] = molecular target: T5, PC1, P29120
# [13] = molecular target: T1, Furin (recombinant, truncated) (mouse), …
# [14] = molecular target: T4, PACE4, P29122
# [15] = molecular target: T5, PC1, P29120
# [16] = molecular target: T1, Furin (recombinant, truncated) (mouse), …
# [17] = molecular target: T4, PACE4, P29122
# [18] = molecular target: T1, Furin (recombinant, truncated) (mouse), …
# [19] = molecular target: T2, PC2, P16519
# [20] = molecular target: T1, Furin (recombinant, truncated) (mouse), …
# [21] = molecular target: T2, PC2, P16519
# [22] = molecular target: T1, Furin (recombinant, truncated) (mouse), …
# [23] = molecular target: T2, PC2, P16519
# [24] = molecular target: T1, Furin (recombinant, truncated) (mouse), …
# [25] = molecular target: T2, PC2, P16519
binder,measurement,setting,value
Ac-LLRVKR [Ac-LLRVKR],Ki,[1],3500 nM
same,Ki,[2],1300 nM
EQRLLKRAKR [PC7 propeptide fragment],Ki,[3],80 nM
same,Ki,[4],6 nM
Ac-RHKRRR-NH2 [Ac-RHKRRR-NH2],Ki,[5],152000 nM
same,Ki,[6],3400 nM
RRRRRRRR [Octa-L-arginine],Ki,[7],150 nM
same,Ki,[8],5100 nM
same,Ki,[9],61 nM
Ac-KRKRRR-NH2 [Ac-KRKRRR-NH2],Ki,[10],391000 nM
same,Ki,[11],1600 nM
RRRRR [Penta-L-arginine],Ki,[12],14000 nM
same,Ki,[13],990 nM
same,Ki,[14],980 nM
RRRRRRRRR [Nona-L-arginine],Ki,[15],12000 nM
same,Ki,[16],42 nM
same,Ki,[17],110 nM
Ac-KHKRRR-NH2 [Ac-KHKRRR-NH2],Ki,[18],5200 nM
same,Ki,[19],280000 nM
Ac-HRKRRR-NH2 [Ac-HRKRRR-NH2],Ki,[20],2100 nM
same,Ki,[21],309000 nM
Ac-RRKRRR-NH2 [Ac-RRKRRR-NH2],Ki,[22],1300 nM
same,Ki,[23],461000 nM
Ac-LLRVKR-NH2 [Ac-LLRVKR-NH2],Ki,[24],3400 nM
same,Ki,[25],1000 nM

# Source: patent US7033991
